Laboratory results taken from patent publication US6919204B2, “Modulation of gene expression using localization domains” (Sangamo Biosciences, Inc., priority 2000, dated 2005).

B1: dMBD-like: Drosophila methyl CpG binding domain protein homolog, product of the 1115 base mRNA (SEQ ID NO:14) (protein)
chain: MQMNPSVTIERKRVDCSVLPKGWQRDEVRKSGSSANNNASSNNNSSATASSNNNNNKVDVFYYSPTGKRAEGKPQDIAIPDFQPGKMPHCALPSPSISLYRCSAMPLPIASGGGNGATSGSAANALKRKFARSQGGNAAGAAGAAPPAATASSAATATAASASPSTANRQQQQIELSRALRTDVSLVPPIRQTASIFKQPVTVIRNHKQDPAKAKNEPKHGTREKPKQLFWEKRLERLRACHDSGEELDDISLPKTIRTVGPNVNEQTVLQSVATALHMLNAGVHGQSSTKADLTKNAMAFMNPEQPLMHAVIISEDDIRKQEDRVGVARRKLQDALKT
B2: dMBD-likeΔ: shorter Drosophila MBD-like isoform, product of the 842 base mRNA (SEQ ID NO:15) (protein)
chain: MQMNPSVTIERKRVDCSVLPKGWQRDEVRKSGSSANNNASSNNNSSATASSNNNNNKVDVFYYSRALRTDVSLVPPIRQTASIFKQPVTVIRNHKQDPAKAKNEPKHGTREKPKQLFWEKRLERLRACHDSGEELDDISLPKTIRTVGPNVNEQTVLQSVATALHMLNAGVHGQSSTKADLTKNAMAFMNPEQPLMHAVIISEDDIRKQEDRVGVARRKLQDALKT

Columns and labels:
[1] = system: G5DE5tkLuc reporter in S2 cells; experiment: Effect of Trichostatin-A on Gal4-tethered repression; format: cell-based, Drosophila; settings: TSA 100 nM and 400 nM, 24 h before harvest
Method: (§1) Drosophila S2 cells were grown in Schneider's medium (Sigma) at 27° C. containing 10% FBS and penicillin/streptomycin. Cells were transfected using the Superfect reagent (Qiagen) following the manufacturer's directions. Transfection assays included 1.5 μg of either the pG5DE5tkLuc reporter or the p-37tkRLuc internal control, essentially as described in Chen et al. (1998) Mol Cell Biol 18:7259-7268. The Gal4 DNA binding domain constructs, pACTIN-SV-Gal4-Gro, pACTIN-SV-Gal4-MBD and pACTIN-SV-Gal4-MBDΔ were constructed by insertion of the Gal4 DBD into the HindIII/PstI sites of pACTIN-SV followed by insertion of Gro, dMBD-like and dMBD-likeΔ into the EcoRI site of the resulting plasmid. Quantities of individual Gal4 plasmids were varied as described in the figure legends. The total amount of plasmid was normalized to 4 μg by addition of pACTIN-SV vector (Huynh et al. (1999) J. Mol Biol 288:13-20) as carrier. Cells were harvested 12 h after transfection and luciferase assays were performed using an Enhanced Luciferase Assay Kit (Pharmingen) according to the manufacturer's instructions. Where indicated, transfected cells were treated with Trichostatin A (TSA, Wako) for 24 h before harvest. If dMBD-like represses transcription through recruitment of a Drosophila Mi-2 complex, transcriptional repression should be sensitive to inhibitors of histone deacetylases. Accordingly, the effect of Trichostatin-A, a histone deacetylase inhibitor, on dMBD-like-mediated repression was tested.

[2] = system: methylated (GAM12) and unmethylated (GAC12) DNA probes; experiment: Southwestern assay with immobilized recombinant protein; format: binding
Method: (§2) Gel mobility shifts were performed in 10% polyacrylamide gels run in 0.5×TBE buffer (45 mM Tris, pH 8.0, 45 mM boric acid, 1 mM EDTA) using GAC12 or GAM12 double-stranded oligonucleotide probes, essentially as described in Wade et al. (1999) Nature Genet. 23:62-66. One picomole of radiolabelled probe was mixed with purified recombinant protein as indicated in the figure legends in 10 mM Tris HCl pH 8.0, 3 mM MgCl2, 50 mM NaCl, 0.1 mM EDTA, 0.1% NP-40, 2 mM DTT, 5% glycerol and 0.4 mg/ml BSA. The samples were incubated for 30 min at 37° C. 30 pmoles of competitor DNA (GAC12 or GAM12) were used per binding reaction. Gels were scanned on a Phosphormager (Molecular Dynamics). The procedure used for southwestern assays is as described in Wade et al. (1999), supra.
In Southwestern assays using immobilized protein, neither isoform interacted with the probes, regardless of methylation status (FIG. 1C). Thus, either the proteins fail to bind or they are unable to refold on the membrane surface.

[3] = system: G5DE5tkLuc reporter in S2 cells; experiment: Cotransfection transcription assay, Gal4-tethered repression of luciferase reporter; format: cell-based, Drosophila; settings: transfection into S2 cells; protein not tethered
Method: as §1, with “If dMBD-like represses transcription through recruitment of a Drosophila Mi-2 complex, transcriptional repression should be sensitive to inhibitors of histone deacetylases. Accordingly, the effect of Trichostatin-A, a histone deacetylase inhibitor, on dMBD-like-mediated repression was tested.” left out

[4] = system: methylated (GAM12) and unmethylated (GAC12) DNA probes; experiment: Gel mobility-shift assay (solution binding); settings: GAC12 or GAM12 probe; 50, 75, 150 ng protein
Method: as §2
Solution interactions with DNA were also examined using an electrophoretic mobility shift assay (FIG. 1D). […] No interaction was detected under these conditions, even non-specific aggregation.

| Molecule | relief of repression by Gal4-Gro [1] | relief of repression mediated by tethered dMBD-like [1] | relief of repression mediated by tethered dMBD-likeΔ [1] | binding of immobilized protein to DNA probes (Southwestern) [2] | transcriptional repression lacking the Gal4 DBD [3] | binding to DNA in solution (electrophoretic mobility shift) [4] |
| --- | --- | --- | --- | --- | --- | --- |
| CC(/C=C/C(=O)NO)=C\[C@@H](C)C(=O)c1ccc(N(C)C)cc1 [Trichostatin-A] | relieves repression | largely relieved | largely relieved | – | – | – |
| B1 | – | – | – | fails to bind methylated DNA | failed to repress transcription | fails to bind methylated DNA in solution |
| B2 | – | – | – | – | failed to repress transcription | – |
